From paper PMC10487846

What was measured:
[1] = molecular target: recombinant wild type (wt) XptA2 (Xenorhabdus nematophilus); experiment: cryo-EM structure; single-particle cryo-EM of wt XptA2, pre-pore state; first map 7.2 Å, final map 3.1 Å (3.02 Å in the methods); 10 mM Tris, 100 mM NaCl, pH 7.5; C5 symmetry
[2] = molecular target: seleno-methionine (SeMet) labeled XptA2 (Xenorhabdus nematophilus); experiment: crystal structure; SeMet XptA2 crystals grown in 0.1 M HEPES pH 7.5, 0.2 M NaCl, 16-20% PEG-3000; MR-SAD phasing with the 7 Å cryo-EM map; 3.1 Å; pre-pore state

Substance | stoichiometry N [1] | stoichiometry N [2]
recombinant wild type (wt) XptA2 | 5 | 
seleno-methionine (SeMet) labeled XptA2 |  | 5
